System: Ir-CPI (Ixodes ricinus Contact Phase Inhibitor), recombinant

| Substance | amidolytic activity on chromogenic substrate (protease:Ir-CPI 1:5) | activation of factor XII into factor XIIa by factor XIa (reconstituted system, purified factors, chromogenic substrate) | activation of factor XII into factor XIIa by kallikrein (reconstituted system, purified factors, chromogenic substrate) |
| --- | --- | --- | --- |
| factor IXa | The results obtained did not show any effect of Ir-CPI protein on the amidolytic activity of these factors |  |  |
| factor XIa | The results obtained did not show any effect of Ir-CPI protein on the amidolytic activity of these factors | Ir-CPI inhibits ... the activation of factor XII into factor XIIa by factor XIa |  |
| plasma kallikrein | The results obtained did not show any effect of Ir-CPI protein on the amidolytic activity of these factors |  | Ir-CPI did not inhibit the activation of factor XII into factor XIIa by kallikrein |
| thrombin | The results obtained did not show any effect of Ir-CPI protein on the amidolytic activity of these factors |  |  |

Reference: patent publication US20160046728
